Target: T1, sweet receptor heterodimer (T1R2/T1R3) (Mus musculus, UniProt Q925D8+Q925I4)
T1 construct: expressed in transfected cells; host or cells: HEK-293
T1 sequence (Q925I4 20-843): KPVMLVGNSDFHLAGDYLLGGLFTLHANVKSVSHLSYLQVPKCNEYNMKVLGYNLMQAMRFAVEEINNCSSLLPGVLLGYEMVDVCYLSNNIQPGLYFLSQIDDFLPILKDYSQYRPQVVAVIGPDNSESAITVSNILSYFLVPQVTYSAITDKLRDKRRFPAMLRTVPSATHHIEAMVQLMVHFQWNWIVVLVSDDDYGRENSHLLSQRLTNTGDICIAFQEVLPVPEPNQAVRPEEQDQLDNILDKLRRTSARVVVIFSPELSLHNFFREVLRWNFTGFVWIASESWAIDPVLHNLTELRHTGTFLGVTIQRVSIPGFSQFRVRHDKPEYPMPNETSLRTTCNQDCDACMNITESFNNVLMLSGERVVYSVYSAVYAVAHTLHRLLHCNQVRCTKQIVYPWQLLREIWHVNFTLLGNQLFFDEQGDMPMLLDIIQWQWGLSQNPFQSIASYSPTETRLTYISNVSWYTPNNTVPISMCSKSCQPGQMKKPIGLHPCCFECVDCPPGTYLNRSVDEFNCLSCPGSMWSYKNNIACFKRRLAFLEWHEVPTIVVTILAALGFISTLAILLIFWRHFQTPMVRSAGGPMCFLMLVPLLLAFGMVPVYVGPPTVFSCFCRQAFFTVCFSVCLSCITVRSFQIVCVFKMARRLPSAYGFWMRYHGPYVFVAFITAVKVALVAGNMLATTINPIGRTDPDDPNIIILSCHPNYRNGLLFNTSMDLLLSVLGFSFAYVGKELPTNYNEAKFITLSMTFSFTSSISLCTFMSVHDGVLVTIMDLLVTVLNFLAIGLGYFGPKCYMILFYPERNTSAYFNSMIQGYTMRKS
T1 sequence (Q925D8 21-858): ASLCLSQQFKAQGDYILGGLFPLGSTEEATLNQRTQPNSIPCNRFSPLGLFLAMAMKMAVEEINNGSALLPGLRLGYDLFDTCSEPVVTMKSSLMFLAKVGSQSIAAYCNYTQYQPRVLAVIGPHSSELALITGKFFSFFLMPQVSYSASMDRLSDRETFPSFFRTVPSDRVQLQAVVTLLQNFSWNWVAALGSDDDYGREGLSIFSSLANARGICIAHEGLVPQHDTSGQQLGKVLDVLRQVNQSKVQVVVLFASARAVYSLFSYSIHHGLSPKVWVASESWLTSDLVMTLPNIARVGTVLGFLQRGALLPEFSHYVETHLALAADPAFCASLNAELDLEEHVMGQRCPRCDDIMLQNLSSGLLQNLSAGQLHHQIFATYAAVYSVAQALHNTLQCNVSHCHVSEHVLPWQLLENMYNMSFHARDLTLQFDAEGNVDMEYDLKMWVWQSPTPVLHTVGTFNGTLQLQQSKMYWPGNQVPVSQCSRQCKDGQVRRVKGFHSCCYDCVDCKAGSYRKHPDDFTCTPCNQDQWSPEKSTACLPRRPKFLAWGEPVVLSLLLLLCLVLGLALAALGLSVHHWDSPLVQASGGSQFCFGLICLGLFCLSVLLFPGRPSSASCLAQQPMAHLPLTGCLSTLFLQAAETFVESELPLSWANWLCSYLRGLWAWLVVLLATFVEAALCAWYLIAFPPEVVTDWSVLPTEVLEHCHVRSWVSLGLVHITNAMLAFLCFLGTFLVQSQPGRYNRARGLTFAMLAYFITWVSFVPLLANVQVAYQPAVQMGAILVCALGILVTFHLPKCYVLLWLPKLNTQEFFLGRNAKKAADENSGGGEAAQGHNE
Experiment: CRE-SEAP reporter gene assay, coupling with sweet receptor
Format: cell-based
Conditions: HEK-293 cells cotransfected with T1R2 and T1R3; 5 mM saccharin
From the text: The GPCRs examined were those that couple with Gαi/Gαo subunits (serotonin 1b, neuropeptide Y1, leukotriene B4, and dopamine D4), Gαq (GNRH, UDP, and calcium-sensing receptors), and the orphan mammalian sweet taste receptor complex (T1R2 and T1R3) with unknown coupling preference. The Gαs-based chimeric G proteins examined in this example were Gαs-Gαi-5, Gαs-Gαt-13 (SEQ ID NO: 3), Gαs-Gαo-13 (SEQ ID NO: 4), Gαs-Gαi-13 (SEQ ID NO: 5), Gαs-Gαz-6 (SEQ ID NO: 18), Gαs-Gα15-13 (SEQ ID NO: 7), Gαs-Gαk-5 (SEQ ID NO: 2), and Gαs-Gαq-13 (SEQ ID NO: 8). The chimeric G protein constructs were prepared as described herein. For the coupling assay, HEK-293 cells were cotransfected with each of the Gαs-based chimeric G protein constructs of interest together with the CRE-SEAP reporter gene construct and a cDNA encoding the GPCR to be tested. The transfected cells were cultured in the presence or absence of a GPCR ligand and then assayed for SEAP activity.
Also tested was whether the chimeric G proteins disclosed herein can be used to detect the activation of GPCRs whose G protein coupling preference is unknown, as is the case with orphan GPCRs. […]
Following transfection, the cells were maintained for 48 hours in 200 ul serum free media containing GPCR ligand. […] Fluorescence was then measured using a CytoFluor 4000 multi well plate reader (Applied Biosystems).

B1: Gαs-Gαt-13: Gαs-based chimeric G protein, final 13 C-terminal amino acids substituted with those of Gαt (protein)
chain: MGCLGNSKTEDQRNEEKAQREANKKIEKQLQKDKQVYRATHRLLLLGAGESGKSTIVKQMRILHVNGFNGEGGEEDVPDYASNSDGEKATKVQDIKNNLKEAIETIVAAMSNLVPPVELANPENQFRVDYILSVMNVPNFDFPPEFYEHAKALWEDEGVRACYERSNEYQLIDCAQYFLDKIDVIKQADYVPSDQDLLRCRVLTSGIFETKFQVDKVNFHMFDVGGQRDERRKWIQCFNDVTAIIFVVASSSYNMVIREDNQTNRLQEALNLFKSIWNNRWLRTISVILFLNKQDLLAEKVLAGKSKIEDYFPEFARYTTPEDATPEPGEDPRVTRAKYFIRDEFLRISTASGDGRHYCYPHFTCAVDTENIRRVFNDCRDIIIKENLKDCGLF
modifications: Chimeric protein
notes: Gαs-based chimeric G protein, final 13 C-terminal amino acids substituted with those of Gαt
increase in SEAP activity: about two

From US9658208B2, “Methods and G proteins for screening and identifying ligands of G protein-coupled receptors” (Fred Hutchinson Cancer Research Center, priority 2011, dated 2017)
